Measured values taken from publication PMC8808070 (The Journal of Biological Chemistry, 2021).

Experiments:
[1] = biological target: T1, YjgCD (ForCE1) (Bacillus subtilis, UniProt O34720); assay: copurification, HPLC-ECD-MS of lipid extracts; EPR of bound menasemiquinone radical; type: binding; details: copurified without detergent; neutral menasemiquinone form seen by EPR at pH 6.0 and 7.5
T1 construct: gene forC; full-length YjgC with N-terminal 6His tag and TEV site, copurified with untagged YjgD; homologous expression in B. subtilis 168; heterodimer 132 kDa; YjgC ~110 kDa, YjgD 21 kDa
T1 sequence (O34720 1-985): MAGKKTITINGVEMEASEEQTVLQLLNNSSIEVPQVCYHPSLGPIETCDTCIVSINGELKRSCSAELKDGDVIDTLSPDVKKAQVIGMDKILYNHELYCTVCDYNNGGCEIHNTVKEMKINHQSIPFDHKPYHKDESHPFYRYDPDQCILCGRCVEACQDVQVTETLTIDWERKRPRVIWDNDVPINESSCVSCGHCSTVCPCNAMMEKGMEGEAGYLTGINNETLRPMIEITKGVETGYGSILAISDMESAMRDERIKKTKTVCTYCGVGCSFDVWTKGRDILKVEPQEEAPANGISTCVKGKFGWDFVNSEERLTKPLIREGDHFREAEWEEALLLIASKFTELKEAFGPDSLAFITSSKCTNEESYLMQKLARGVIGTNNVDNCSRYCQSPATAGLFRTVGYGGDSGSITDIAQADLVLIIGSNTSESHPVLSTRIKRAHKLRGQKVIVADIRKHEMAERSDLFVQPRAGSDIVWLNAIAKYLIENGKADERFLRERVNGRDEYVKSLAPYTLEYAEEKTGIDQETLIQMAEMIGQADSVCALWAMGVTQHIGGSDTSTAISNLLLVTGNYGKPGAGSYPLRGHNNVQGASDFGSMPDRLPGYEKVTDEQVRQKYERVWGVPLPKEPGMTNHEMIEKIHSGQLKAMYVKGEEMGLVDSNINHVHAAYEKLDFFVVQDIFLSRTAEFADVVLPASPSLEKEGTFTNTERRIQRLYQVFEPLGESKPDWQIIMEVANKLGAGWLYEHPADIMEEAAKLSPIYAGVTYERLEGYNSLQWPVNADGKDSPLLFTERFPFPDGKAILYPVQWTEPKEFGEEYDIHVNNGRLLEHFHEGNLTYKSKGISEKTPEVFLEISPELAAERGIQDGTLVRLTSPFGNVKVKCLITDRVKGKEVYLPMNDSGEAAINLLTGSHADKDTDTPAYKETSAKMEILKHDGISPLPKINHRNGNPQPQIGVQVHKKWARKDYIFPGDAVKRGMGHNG
T1 sequence (O34681 1-186 partner): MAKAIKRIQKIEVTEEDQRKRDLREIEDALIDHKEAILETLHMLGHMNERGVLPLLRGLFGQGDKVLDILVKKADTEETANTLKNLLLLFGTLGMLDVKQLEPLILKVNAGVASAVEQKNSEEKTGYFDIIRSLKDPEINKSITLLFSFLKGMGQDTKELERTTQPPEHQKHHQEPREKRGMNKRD

[2] = biological target: T2, YrhED (ForCE2) (Bacillus subtilis, UniProt Q795Y4); assay: as above; type: binding; details: copurified without detergent; menasemiquinone radical seen by EPR
T2 construct: gene fdhE; full-length YrhE with N-terminal 6His tag and TEV site, copurified with untagged YrhD; homologous expression in B. subtilis 168; heterodimer 125 kDa; YrhE ~110 kDa, YrhD 17 kDa
T2 sequence (Q795Y4 1-980): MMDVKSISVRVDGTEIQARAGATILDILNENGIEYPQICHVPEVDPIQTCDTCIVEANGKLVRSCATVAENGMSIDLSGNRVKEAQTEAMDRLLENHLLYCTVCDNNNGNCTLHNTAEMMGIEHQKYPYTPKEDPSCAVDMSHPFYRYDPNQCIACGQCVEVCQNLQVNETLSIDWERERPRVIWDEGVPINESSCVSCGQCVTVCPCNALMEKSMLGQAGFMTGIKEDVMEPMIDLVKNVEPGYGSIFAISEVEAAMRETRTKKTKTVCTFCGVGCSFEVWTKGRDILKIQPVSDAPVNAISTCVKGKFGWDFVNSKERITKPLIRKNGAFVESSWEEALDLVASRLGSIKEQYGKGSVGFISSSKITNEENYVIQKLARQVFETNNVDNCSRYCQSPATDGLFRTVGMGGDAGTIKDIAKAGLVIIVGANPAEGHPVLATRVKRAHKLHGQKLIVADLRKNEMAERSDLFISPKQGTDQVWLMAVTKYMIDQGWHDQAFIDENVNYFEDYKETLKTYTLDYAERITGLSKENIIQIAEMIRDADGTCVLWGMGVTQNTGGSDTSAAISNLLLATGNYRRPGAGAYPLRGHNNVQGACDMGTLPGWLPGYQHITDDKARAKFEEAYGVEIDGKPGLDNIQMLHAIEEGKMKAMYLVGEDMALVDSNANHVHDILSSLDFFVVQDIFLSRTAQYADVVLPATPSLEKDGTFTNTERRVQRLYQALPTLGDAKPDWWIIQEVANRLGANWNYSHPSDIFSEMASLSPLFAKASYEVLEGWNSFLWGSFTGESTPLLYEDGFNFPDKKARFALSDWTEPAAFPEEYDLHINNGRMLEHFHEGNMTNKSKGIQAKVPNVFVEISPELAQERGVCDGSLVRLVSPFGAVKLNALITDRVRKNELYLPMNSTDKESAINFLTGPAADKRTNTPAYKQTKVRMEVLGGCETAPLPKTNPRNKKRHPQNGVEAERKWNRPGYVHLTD
T2 sequence (O05396 1-160 partner): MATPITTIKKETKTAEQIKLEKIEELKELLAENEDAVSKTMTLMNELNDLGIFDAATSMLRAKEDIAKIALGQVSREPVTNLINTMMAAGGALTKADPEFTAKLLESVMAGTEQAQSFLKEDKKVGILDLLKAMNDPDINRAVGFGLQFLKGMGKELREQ

[3] = biological target: T1, YjgCD (ForCE1); assay: copurification, HPLC-ECD-MS of lipid extracts; type: binding; details: copurified without detergent, minor species
[4] = substrate: CC1=CC(=O)c2ccccc2C1=O; assay: purified protein; type: biochemical, Bacillus subtilis; details: 50 mM sodium formate as electron donor, 25 mM CHES pH 9, room temperature, anaerobic
[5] = substrate: O=CO; assay: purified protein; details: anaerobic
[6] = benzyl viologen as electron acceptor (17.5 mM), 25 mM CHES pH 10, room temperature, pH 10.0
[7] = benzyl viologen as electron acceptor (1.75 mM), 25 mM CHES pH 8.6, room temperature, pH 8.6

Which results are given for `CC(C)=CCC/C(C)=C/CC/C(C)=C/CC/C(C)=C/CC/C(C)=C/CC/C(C)=C/CC/C(C)=C/CC1=C(C)C(=O)c2ccccc2C1=O` [MK-7]?
ForCE1-MK-7 ratio [1]: 1:0.87; ForCE2-MK-7 ratio [2]: 1:1.63

For `CC(C)=CCC/C(C)=C/CC/C(C)=C/CC/C(C)=C/CC/C(C)=C/CC/C(C)=C/CC/C(C)=C/CC/C(C)=C/CC1=C(C)C(=O)c2ccccc2C1=O` [MK-8], which “copurification, HPLC-ECD-MS of lipid extracts” value [3] is on record?
Its value is “ForCE1 is also able to bind MK-8 at a low but significant ratio”.

B1: YjgCD (ForCE1) (Bacillus subtilis subsp. subtilis str. 168) (protein)
chain: T1 sequence (O34720 1-985)
notes: full-length YjgC with N-terminal 6His tag and TEV site, copurified with untagged YjgD; homologous expression in B. subtilis 168; heterodimer 132 kDa; YjgC ~110 kDa, YjgD 21 kDa
With B1 as the molecule, how does the Km [4] read?
Its Km is 25 ± 3 µM.

And the Vmax [4]?
The Vmax was 7.5 µmol/min.

And the kcat [4]?
Its kcat is 16.5 ± 0.6 s⁻¹.

And the Km [5, 6]?
Its Km is 5100 ± 900 µM.

What about the Vmax [5, 6] of the same molecule?
The Vmax was 43.7 µmol/min.

What about the kcat [5, 6] of the same molecule?
The kcat was 96.1 s⁻¹.

B2: YrhED (ForCE2) (Bacillus subtilis subsp. subtilis str. 168) (protein)
chain: T2 sequence (Q795Y4 1-980)
notes: full-length YrhE with N-terminal 6His tag and TEV site, copurified with untagged YrhD; homologous expression in B. subtilis 168; heterodimer 125 kDa; YrhE ~110 kDa, YrhD 17 kDa
How did the Km [4] turn out when B2 was run?
Its Km is 23 ± 5 µM.

And the Vmax [4]?
Its Vmax is 12.6 µmol/min.

And the kcat [4]?
Its kcat is 26.4 ± 1.8 s⁻¹.

And the Km [5, 7]?
The Km was 1100 ± 100 µM.

What about the Vmax [5, 7] of the same molecule?
Its Vmax is 26.6 µmol/min.

What about the kcat [5, 7] of the same molecule?
Its kcat is 55.8 s⁻¹.
